From US10500249B2, “Compositions and methods for preventing or treating diseases, conditions, or processes characterized by aberrant fibroblast proliferation and extracellular matrix deposition” (MOERAE MATRIX, INC., priority 2014, dated 2019)

How the values were obtained:
Assay in all cases: Kinase Profiling Assay
Type in all cases: biochemical
Details in all cases: 100 μM
CaMKIV (h) = target: T1, CaMKIV (h) (Homo sapiens, UniProt Q16566)
T1 construct: purchased Millipore
T1 sequence (Q16566 1-473): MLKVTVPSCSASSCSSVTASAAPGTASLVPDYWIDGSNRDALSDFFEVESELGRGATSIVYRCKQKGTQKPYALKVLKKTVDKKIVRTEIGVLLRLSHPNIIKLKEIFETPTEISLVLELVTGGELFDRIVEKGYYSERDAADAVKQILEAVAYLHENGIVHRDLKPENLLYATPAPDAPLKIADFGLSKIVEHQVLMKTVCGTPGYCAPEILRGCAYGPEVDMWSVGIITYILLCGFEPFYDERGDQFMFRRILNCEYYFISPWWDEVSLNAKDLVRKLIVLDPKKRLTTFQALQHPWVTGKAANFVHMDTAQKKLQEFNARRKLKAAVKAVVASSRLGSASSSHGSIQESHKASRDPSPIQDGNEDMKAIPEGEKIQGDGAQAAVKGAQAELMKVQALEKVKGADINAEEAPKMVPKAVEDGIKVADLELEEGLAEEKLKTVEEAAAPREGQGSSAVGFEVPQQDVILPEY
In short: (§1)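 Radiometric filter-binding format: cationic substrate takes up labeled phosphate from ATP unless the inhibitor peptide blocks the kinase. Substrate bound to an anionic filter, scintillation-counted, normalized to 100% activity control. Duplicates; part of a 266-kinase selectivity panel for MK2 peptides.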

LKB1 (h) = target: T2, LKB1 (h) (Homo sapiens, UniProt Q15831)
T2 sequence (Q15831 1-433): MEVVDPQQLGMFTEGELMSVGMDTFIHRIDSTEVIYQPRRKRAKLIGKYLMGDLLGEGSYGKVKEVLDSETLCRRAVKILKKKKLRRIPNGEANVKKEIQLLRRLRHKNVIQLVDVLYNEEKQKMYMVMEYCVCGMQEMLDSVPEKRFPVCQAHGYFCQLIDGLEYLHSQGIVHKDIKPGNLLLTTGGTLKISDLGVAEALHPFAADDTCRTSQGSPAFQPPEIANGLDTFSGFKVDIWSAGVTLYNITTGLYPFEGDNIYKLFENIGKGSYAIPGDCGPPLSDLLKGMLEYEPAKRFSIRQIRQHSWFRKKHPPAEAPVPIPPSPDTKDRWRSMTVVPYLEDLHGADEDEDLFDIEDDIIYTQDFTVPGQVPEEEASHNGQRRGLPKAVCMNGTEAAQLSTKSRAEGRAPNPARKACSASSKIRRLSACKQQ
T2 sequence (Q7RTN6 1-431 partner): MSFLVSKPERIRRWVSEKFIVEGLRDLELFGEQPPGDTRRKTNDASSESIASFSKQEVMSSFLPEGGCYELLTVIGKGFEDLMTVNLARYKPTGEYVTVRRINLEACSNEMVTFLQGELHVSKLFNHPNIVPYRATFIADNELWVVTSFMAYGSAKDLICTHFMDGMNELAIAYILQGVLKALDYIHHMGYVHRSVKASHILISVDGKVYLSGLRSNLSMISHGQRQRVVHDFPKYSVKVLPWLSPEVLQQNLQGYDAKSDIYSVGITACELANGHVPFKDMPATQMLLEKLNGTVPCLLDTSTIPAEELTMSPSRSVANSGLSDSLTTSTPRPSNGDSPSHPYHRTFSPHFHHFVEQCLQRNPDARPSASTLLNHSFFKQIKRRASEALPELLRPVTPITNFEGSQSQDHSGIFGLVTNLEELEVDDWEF
T2 sequence (Q9Y376 1-341 partner): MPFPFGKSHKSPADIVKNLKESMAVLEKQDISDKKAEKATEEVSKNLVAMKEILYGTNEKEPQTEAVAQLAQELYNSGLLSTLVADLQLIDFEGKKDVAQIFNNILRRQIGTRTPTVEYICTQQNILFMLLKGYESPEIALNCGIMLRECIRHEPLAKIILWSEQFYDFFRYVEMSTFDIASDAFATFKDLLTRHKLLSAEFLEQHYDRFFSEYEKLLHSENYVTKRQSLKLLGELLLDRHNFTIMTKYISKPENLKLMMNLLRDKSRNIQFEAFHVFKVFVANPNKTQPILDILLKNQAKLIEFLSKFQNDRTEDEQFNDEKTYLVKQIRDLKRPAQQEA
In short: as §1

Ret (V804L) (h) = Ret (V804L) (h) (Homo sapiens, UniProt P07949, V804L)
In short: as §1

CDK9/cyclin T1 (h) = target: T3, CDK9/cyclin T1 (h) (Homo sapiens, UniProt P50750)
T3 construct: purchased Millipore
In short: as §1

IKKβ (h) = target: T4, IKKβ (h) (Homo sapiens, UniProt O14920)
T4 construct: purchased Millipore
T4 sequence (O14920 1-756): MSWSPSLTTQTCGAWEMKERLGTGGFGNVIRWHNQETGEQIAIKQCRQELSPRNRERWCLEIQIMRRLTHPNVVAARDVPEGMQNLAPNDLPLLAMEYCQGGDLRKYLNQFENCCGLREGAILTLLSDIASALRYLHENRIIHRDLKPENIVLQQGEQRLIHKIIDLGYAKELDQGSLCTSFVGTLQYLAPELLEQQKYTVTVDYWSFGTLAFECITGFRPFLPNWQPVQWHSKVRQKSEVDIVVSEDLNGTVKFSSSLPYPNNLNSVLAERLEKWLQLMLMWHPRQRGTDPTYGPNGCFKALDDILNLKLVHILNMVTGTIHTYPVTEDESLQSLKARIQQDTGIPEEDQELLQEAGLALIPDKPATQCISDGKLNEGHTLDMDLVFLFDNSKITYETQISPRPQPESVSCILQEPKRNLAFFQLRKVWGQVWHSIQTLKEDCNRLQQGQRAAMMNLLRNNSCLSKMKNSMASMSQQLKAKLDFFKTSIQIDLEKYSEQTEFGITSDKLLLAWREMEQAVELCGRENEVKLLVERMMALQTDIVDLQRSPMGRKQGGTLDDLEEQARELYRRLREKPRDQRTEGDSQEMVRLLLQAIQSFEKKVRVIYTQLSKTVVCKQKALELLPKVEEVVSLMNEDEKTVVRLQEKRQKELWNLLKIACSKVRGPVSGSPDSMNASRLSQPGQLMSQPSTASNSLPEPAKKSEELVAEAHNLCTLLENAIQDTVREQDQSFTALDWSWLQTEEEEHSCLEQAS
In short: as §1

T3 sequence (P50750 whole entry): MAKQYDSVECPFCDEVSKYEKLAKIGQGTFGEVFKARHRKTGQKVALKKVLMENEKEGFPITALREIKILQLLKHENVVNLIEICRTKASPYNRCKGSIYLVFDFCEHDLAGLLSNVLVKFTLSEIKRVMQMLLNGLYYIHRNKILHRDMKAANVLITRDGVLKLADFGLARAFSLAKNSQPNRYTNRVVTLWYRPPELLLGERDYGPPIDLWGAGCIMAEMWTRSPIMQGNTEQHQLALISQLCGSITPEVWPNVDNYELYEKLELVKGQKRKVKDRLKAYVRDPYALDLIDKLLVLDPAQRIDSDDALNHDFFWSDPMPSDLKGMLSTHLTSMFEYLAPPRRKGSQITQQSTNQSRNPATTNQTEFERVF
T3 sequence (O60563 whole entry partner): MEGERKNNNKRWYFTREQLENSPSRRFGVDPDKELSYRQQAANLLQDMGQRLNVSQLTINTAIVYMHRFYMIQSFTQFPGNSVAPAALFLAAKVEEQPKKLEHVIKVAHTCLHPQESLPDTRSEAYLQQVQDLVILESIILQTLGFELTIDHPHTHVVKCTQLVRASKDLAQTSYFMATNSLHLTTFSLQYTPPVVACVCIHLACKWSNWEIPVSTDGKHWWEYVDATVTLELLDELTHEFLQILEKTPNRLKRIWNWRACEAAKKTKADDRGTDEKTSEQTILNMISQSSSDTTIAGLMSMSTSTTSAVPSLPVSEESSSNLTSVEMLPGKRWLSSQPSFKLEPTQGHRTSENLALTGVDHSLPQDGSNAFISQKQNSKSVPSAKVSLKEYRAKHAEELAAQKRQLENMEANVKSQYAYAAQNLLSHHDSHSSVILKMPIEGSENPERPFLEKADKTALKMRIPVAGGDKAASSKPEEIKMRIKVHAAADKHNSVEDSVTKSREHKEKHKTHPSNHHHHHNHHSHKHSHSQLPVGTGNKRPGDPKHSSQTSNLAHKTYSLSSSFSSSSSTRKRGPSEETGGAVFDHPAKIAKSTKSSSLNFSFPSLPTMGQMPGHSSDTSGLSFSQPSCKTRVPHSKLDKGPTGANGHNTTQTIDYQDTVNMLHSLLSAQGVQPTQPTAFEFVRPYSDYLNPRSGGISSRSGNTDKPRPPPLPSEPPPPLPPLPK

Sequence	% activity (CaMKIV (h)) [%]	% activity (LKB1 (h)) [%]	% activity (Ret (V804L) (h)) [%]	% activity (CDK9/cyclin T1 (h)) [%]	% activity (IKKβ (h)) [%]
YARAAARQARAKALNRQLGVA (Mammalian) [MMI-0200]	71	99	100	–	–
HRRIKAWLKKIKALARQLGVAA (Mammalian) [MMI-0500]	−1	51	20	6	71
FAKLAARLYRKALARQLGVAA [MMI-0300]	17	101	79	91	84
KAFAKLAARLYRKALARQLGVAA [MMI-0400]	18	89	73	235	84
